Where no end group is shown, it is not given here.
T1: Biotin conjugated L145K CD28 stalk region dimeric peptide (human, C-terminal biotin; dimer through Cysteine 141)
T1 peptide: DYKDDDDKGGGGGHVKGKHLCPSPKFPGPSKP

T2: BSA conjugated CD28 stalk region dimeric peptide (human, also: dimer through the cysteine, BSA conjugated via C-terminal Lys by hydrazide chemistry)
T2 construct: Peptide used for immunization and, BSA conjugated, as ELISA antigen for M9; also called stalk region peptide
T2 peptide: GKHLCPSPLFPGPSKPK

B1: VHH clone 2A1 (VHH)
VHH: EVQLVESGGGLVQAGESLRLSCAASGSIASINAMGWYRQAPGSQRELVAAISGGGDTYYADSVKGRFTISRDNAKTTVYLQMNSLRPEDTAVYYCVVDLYGSDYWDWGQGTQVTVSS
notes: also called VHH #2A1
B2: VHH clone 4A1 (VHH)
VHH: QVQLVESGGGLVQAGGSLRLSCAASGSIFSINAMGWYRQAPGKQRERVAAITSGGSTNYADSVKGRFTISRDNAKNTVYLQMNNLEPRDAGVYYCVVDLYGEDYWIWGQGTQVTVSS
B3: VHH clone 4A4 (VHH)
VHH: EVQLVESGGGLVQAGGSLRLSCAASGSLFSINAMAWYRQAPGKQRELVAAITSSGSTNYANSVKGRFTVSRDNAKNTMYLQMNSLKPEDTAVYYCVVDEYGSDYWIWGQGTQVTVSS
B4: antibody M9 (antibody, V domains shown)
VH: DVKLVESGGGLVKLGGSLKLSCVASGFTFSSYYMSWVRQTPEKRLEWVATISDGGDNTYYAGTVTGRFTISRDFAKNTLYLQMNSLTSEDTAVYYCARIHWPYYFDSWGQGTTLTVSS
VL: QFVLSQSPAILSASPGEMLTMTCRASSSVSYMNWYQQKPGSSPKPWIYATSDLASGVPARFSGSGSGTSYSLTISRVEAEDAATYYCQQWSSHPPTFGGGTKLEIR
notes: Full-size mouse antibody raised in CD1 mice against the dimeric stalk peptide; detected with anti mouse IgG; also called clone M9; anti-cleavage antibody M9

How the values were obtained:
[1] = target: T1, Biotin conjugated L145K CD28 stalk …; test: direct ELISA on L145K dimeric stalk peptide on neutravidin plates, anti His tag-HRP (FIG. 23)
[2] = target: T3, membranal human CD28 (full-length human CD28 on cells) (human, UniProt P10747 19-220); test: FACS, FITC conjugated VHH on HEK cells overexpressing human CD28 (FIG. 14)
T3 construct: in the functional assays also the CD28 of human CD3 or CD4 T cells and PBMC; also called mCD28; membranal CD28

[3] = target: T2, BSA conjugated CD28 stalk region …; test: ELISA, antigen immobilized, serial dilution of M9, anti mouse IgG-HRP (FIG. 12A)

| Binder | binding result [1] | binding result [2] | binding result [3] |
| --- | --- | --- | --- |
| B1 | no binding (tested: 0.2-5 µg/mL) | binds |  |
| B2 | no binding (tested: 0.2-5 µg/mL) |  |  |
| B3 | no binding (tested: 0.2-5 µg/mL) |  |  |
| B4 |  |  | binds |

Reference: patent US20220169732A1 (BIOND BIOLOGICS, published 2022)
